The values below come from US20060040323A1 (SCIENCE AND TECHNOLOGY CORPORATION UNM, published 2006).

Bounds are passed on as bounds.

In assay [1] the target is platelet Fc-gamma RIIA (human) (UniProt P12318). As to the kind of experiment: cell-based or functional assay.
Assay [2] deals with T1, hPF4/heparin complex (human, UniProt P02776 32-101).
T1 construct: hPF4 (10 micrograms per milliliter) complexed with heparin (0.2 Units/milliliter in the standard ELISA); heparin is a glycosaminoglycan and not a protein chain; also called P/H
T1 sequence (looked up): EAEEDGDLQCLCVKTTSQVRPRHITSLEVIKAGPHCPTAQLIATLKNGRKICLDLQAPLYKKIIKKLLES
Briefly: ELISA, wells coated with hPF4/heparin. The protocol:
(§1) The binding of antibody to either PF4, PF4 variants, PF4 bound to various GAGs or other chemokines complexed to heparin, was measured using an ELISA-based method as previously described (Arepally et al., 1995, Am. J. Clin. Pathol. 104:648). Briefly, to screen hybridoma culture supematants, 96-well microtiter plates were coated overnight at room temperature with 50 micoliters per well of phosphate buffered saline (PBS) containing PF4 (final concentration 10 micrograms per milliliter) in the presence or absence of heparin (0.2 Units/milliliter). The plates were then washed three times with TBS/0.01% Tween-20, blocked with 10% fetal calf serum (FCS) (200 microliters per well) in PBS for 2 hours at room temperature, and washed once more. Culture supernatant was added (50 microliters per well) for 1 hour at room temperature. […] The binding of KKO to PF4 and related chemokines and the binding of KKO to PF4 bound to various GAGs, was measured in the same manner, except that an incubation volume of 100 microliters per well was used.
(§2) The relative specificity of KKO was determined by adding various dilutions of KKO to wells coated with hPF4/heparin complex or hPF4 alone. […] At concentrations less than 0.14 micrograms per milliliter, the ratio of binding of KKO to PF4/heparin complex vs. binding to PF4 alone as determined by A₄₀₅ was greater than 400. […]
Background: ELISA stands for enzyme-linked immunosorbent assay.

For assay [3], the target named is T2, hNAP-2 complexed to heparin (human, UniProt P02775 59-128).
T2 construct: mature; Complexed to heparin in the ELISA; NAP-2 is its C-terminal product
T2 sequence (looked up): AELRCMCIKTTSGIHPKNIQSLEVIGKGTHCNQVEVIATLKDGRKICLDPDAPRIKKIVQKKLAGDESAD
As to the kind of experiment: ELISA, chemokine complexed to heparin. The protocol: as §1, with “temperature. Non-bound antibody was removed by washing, and 50 microliters per well of alkaline-phosphatase conjugated goat anti-mouse IgG, diluted 1:1000 in 10% FCS/PBS was added for 1 hour at room temperature.” for “temperature.”

The target of assay [4] is T3, hIL-8 complexed to heparin (human, UniProt P10145 21-99).
T3 construct: mature; Complexed to heparin in the ELISA
T3 sequence (looked up): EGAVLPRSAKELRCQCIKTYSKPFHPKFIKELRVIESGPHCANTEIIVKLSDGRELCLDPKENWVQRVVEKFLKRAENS
Briefly: ELISA, chemokine complexed to heparin. The protocol:
as §1, with “temperature. Non-bound antibody was removed by washing, and 50 microliters per well of alkaline-phosphatase conjugated goat anti-mouse IgG, diluted 1:1000 in 10% FCS/PBS was added for 1 hour at room temperature.” for “temperature.”

Assay [5] has as its target T4, murine PF4 complexed to heparin (murine, UniProt Q9Z126 30-105).
T4 construct: mature; Complexed to heparin in the ELISA; also called mPF4; mouse PF4
T4 sequence (looked up): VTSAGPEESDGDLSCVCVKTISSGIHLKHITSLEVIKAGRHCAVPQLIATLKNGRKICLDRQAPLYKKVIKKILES
Briefly: ELISA, mPF4 complexed to heparin. The protocol:
as §1, with “temperature. Non-bound antibody was removed by washing, and 50 microliters per well of alkaline-phosphatase conjugated goat anti-mouse IgG, diluted 1:1000 in 10% FCS/PBS was added for 1 hour at room temperature.” for “temperature.”

Assay [6] addresses T1, hPF4/heparin complex. Briefly: ELISA, KKO at concentrations less than 0.14 micrograms per milliliter. The protocol:
as §1, §2

In assay [7] the target is T1, hPF4/heparin complex. As to the kind of experiment: ELISA, wells coated with hPF4/heparin or hPF4 alone. The protocol: as §1, with “temperature. Non-bound antibody was removed by washing, and 50 microliters per well of alkaline-phosphatase conjugated goat anti-mouse IgG, diluted 1:1000 in 10% FCS/PBS was added for 1 hour at room temperature.” for “temperature.”

platelet Fc-gamma RIIA (human), sequence (P12318 34-317, form in doubt): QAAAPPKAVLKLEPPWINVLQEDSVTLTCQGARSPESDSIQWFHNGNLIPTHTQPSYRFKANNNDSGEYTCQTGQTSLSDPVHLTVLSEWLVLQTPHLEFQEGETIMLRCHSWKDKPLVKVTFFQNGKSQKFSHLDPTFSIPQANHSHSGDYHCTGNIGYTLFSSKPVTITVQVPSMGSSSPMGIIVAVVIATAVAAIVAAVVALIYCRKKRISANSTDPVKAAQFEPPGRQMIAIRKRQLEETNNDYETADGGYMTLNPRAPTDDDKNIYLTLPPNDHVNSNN

As to “Fc-gamma RIIA blocking antibody mAb IV.3”, the 14C-serotonin release induced by KKO in assay [1] was less than 5 % release.

B1: murine monoclonal antibody KKO (antibody, V domains shown)
VH: EVQLQQSGAELVKPGASVKLSCKASGYTFTNYFIYWVKQRPGQGLEWIGEINPRNGDTDFNEKFESRATLTVDKSSSTAYMQLSSLTSEDSAIYYCTRSPYGNNYGFTYWGQGTLVTVSA
VL: DIQMIQSQKFMSTSVGDRVTVTCKASQNVGTNVAWYQQKPGQSPNALIYSASYRYSGVPDRFTGSGSGTDFTLTITNVQSEDLADYFCQQYNSYPLTFGTGTKLEIK
notes: Murine IgG2b kappa purified from ascites
Take B1: the EC50 with hPF4/heparin complex [2] amounted to 0.036 mg/L. The binding result in assay [3], in assay [4] and in assay [5] was “no binding” in each case. The “ratio of binding to PF4/heparin complex vs. binding to PF4 alone (A405)” value with hPF4/heparin complex [6] is more than 400 ratio. In addition, the “A405 ratio to hPF4/heparin complex versus hPF4 alone” value with hPF4/heparin complex [7] is more than 30 ratio.

One may read the EC50 as the concentration at which the effect is half-maximal.
